Data taken from publication PMC12083643, “Closed State Structure of the Pore Revealed by Uncoupled Shaker K+ Channel” (Research Square, 2025).

Target: the molecule itself
Assay: cryo-EM structure; single-particle cryo-EM of the purified channel in 0.02% GDN, 150 mM KCl, 2 mM TCEP, 1 mM EDTA, 50 mM TRIS pH 7.5; about 0.7 mg/mL; refinement with C4 symmetry

B1: Shaker-IR-I384R (natural protein, UniProt P08510 1-655, looked up)
chain: MAAVALREQQLQRNSLDGYGSLPKLSSQDEEGGAGHGFGGGPQHFEPIPHDHDFCERVVINVSGLRFETQLRTLNQFPDTLLGDPARRLRYFDPLRNEYFFDRSRPSFDAILYYYQSGGRLRRPVNVPLDVFSEEIKFYELGDQAINKFREDEGFIKEEERPLPDNEKQRKVWLLFEYPESSQAARVVAIISVFVILLSIVIFCLETLPEFKHYKVFNTTTNGTKIEEDEVPDITDPFFLIETLCIIWFTFELTVRFLACPNKLNFCRDVMNVIDIIAIIPYFITLATVVAEEEDTLNLPKAPVSPQDKSSNQAMSLAILRVIRLVRVFRIFKLSRHSKGLQRLGRTLKASMRELGLLIFFLFIGVVLFSSAVYFAEAGSENSFFKSIPDAFWWAVVTMTTVGYGDMTPVGVWGKIVGSLCAIAGVLTIALPVPVIVSNFNYFYHRETDQEEMQSQNFNHVTSCPYLPGTLGQHMKKSSLSESSSDMMDLDDGVESTPGLTETHPGRSAVAPFLGAQQQQQQPVASSLSMSIDKQLQHPLQQLTQTQLYQQQQQQQQQQQNGFKQQQQQTQQQLQQQQSHTINASAAAATSGSGSSGLTMRHNNALAVSIETDV
notes: Subcloned into a modified pEG BacMam vector with a C-terminal HRV 3C protease site, eGFP and 8x-His; the channel was released from the beads by HRV 3C protease; PDB 7SIP (Shaker-IR without I384R) was the template for model building; also called uncoupled channel; uncoupled I384R mutant; not shown: eGFP, C-terminal, cleaved; 8x-His, C-terminal, cleaved
stoichiometry N: 4
